Among the data in patent US20060002935A1 are ELISA signal and HeLa IL-8 Cell Assay, Activity (IC50) values, retold here.

Assay [1] addresses hen egg lysozyme (hen) (UniProt P00698). The assay can be described thus: ELISA on HEL-coated plate, detection via myc tag (9e10) and anti mouse IgG-HRP.
In assay [2] the target is human TNFR1 on HeLa cells (human) (UniProt P19438). The assay can be described thus: cell-based or functional assay.
human TNFR1 on HeLa cells (human), sequence (P19438 30-455): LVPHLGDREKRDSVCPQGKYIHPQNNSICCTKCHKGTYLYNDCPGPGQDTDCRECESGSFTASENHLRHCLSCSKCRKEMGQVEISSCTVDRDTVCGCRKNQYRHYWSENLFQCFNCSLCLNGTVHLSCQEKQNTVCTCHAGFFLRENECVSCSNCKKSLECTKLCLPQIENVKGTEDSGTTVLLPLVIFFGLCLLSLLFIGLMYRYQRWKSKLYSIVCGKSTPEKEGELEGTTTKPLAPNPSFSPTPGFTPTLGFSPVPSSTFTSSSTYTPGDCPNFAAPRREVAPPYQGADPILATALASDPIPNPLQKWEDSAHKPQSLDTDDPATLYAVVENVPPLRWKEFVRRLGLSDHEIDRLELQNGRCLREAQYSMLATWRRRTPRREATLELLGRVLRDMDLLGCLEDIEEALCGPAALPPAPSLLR

hen egg lysozyme (hen), sequence (P00698 19-147): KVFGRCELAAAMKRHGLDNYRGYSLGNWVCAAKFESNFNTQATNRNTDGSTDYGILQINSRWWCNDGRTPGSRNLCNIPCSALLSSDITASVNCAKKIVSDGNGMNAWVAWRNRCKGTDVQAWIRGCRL

B1: VH CH/VH CK dual specific Fab like fragment (HEL4 CH / TAR2-5 CK) (bispecific antibody, from a related filing, V domains shown)
V domain 1: EVQLLESGGGLVQPGGSLRLSCAASGFRISDEDMGWVRQAPGKGLEWVSSIYGPSGSTYYADSVKGRFTISRDNSKNTLYLQMNSLRAEDTAVYYCASALEPLSEPLGFWGQGTLVTVSS
V domain 2: EVQLLESGGGLVQPGGSLRLSCAASGFTFDLYNMFWVRQAPGKGLEWVSFISQTGRLTWYADSVKGRFTISRDNSKNTLYLQMNSLRAEDTAVYYCAKTLEDFDYWGQGTLVTVSS
modifications: left off: a dimerising Fc or GST; small tags and cut ends
The molecule B1 displayed an ELISA signal in assay [1] of 0.154.

B2: TAR2h-10-55 (protein)
chain: EVQLLESGGGLVQPGGSLRLSCAASGFPFEWYWMGWVRQAPGKGLEWVSAISGSGDSTYYADSVKGRFTISRDNSKNTLYQQMNSLRAEDAAVYYCAKVKLGGGPNFGYRGQGTLVTVSS
For the molecule B2, in assay [2], the HeLa IL-8 Cell Assay, Activity (IC50) worked out at 0.02 µM.
